According to patent US20190270826A1 (Janssen / Centocor, published 2019):
Positions count from the first letter of the chain named. Names and notes keep the numbering of the source. Blank lines part the entries; values can stand above or below the binder they belong to.

Key:
[1] = biological target: T1, recombinant cyno IL1RAP ECD (cynomolgus monkey, UniProt P59822 21-367 (rhesus entry)); experiment: SPR
T1 construct: also called rcynoIL1RAP
T1 sequence: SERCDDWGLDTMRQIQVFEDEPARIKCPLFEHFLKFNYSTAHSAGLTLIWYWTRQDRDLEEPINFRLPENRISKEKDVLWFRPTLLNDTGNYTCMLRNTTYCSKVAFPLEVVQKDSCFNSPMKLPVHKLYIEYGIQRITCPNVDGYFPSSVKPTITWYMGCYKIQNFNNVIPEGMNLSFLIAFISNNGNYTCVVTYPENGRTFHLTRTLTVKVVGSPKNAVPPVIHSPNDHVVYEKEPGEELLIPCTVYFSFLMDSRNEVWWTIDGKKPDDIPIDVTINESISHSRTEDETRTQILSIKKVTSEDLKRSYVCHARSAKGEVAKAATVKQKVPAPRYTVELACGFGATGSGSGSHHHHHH

[2] = biological target: T2, human IL1RAP on cells (endogenous) (human, UniProt Q9NPH3 21-570); experiment: cell-based or functional assay
T2 sequence (looked up): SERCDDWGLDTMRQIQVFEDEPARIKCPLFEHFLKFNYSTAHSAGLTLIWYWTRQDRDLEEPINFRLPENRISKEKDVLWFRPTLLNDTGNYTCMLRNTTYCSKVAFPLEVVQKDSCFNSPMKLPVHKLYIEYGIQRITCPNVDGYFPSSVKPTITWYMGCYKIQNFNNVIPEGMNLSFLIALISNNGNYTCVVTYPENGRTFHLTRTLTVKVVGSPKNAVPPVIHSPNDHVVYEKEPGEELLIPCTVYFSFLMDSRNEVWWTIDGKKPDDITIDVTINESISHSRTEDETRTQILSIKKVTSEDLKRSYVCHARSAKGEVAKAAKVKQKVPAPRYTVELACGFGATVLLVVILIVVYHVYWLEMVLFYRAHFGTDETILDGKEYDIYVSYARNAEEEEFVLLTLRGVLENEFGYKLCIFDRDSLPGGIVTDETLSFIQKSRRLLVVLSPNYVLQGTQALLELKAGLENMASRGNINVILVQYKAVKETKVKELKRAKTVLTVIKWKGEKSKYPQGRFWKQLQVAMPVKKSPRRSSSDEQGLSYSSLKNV

[3] = biological target: T3, recombinant human IL1RAP ECD (human, UniProt Q9NPH3 21-367); experiment: SPR, summary
T3 construct: His-tagged; also called hIL1RAP-ECD; rhuIL1RAP
T3 sequence: T1 sequence with F183L, P273T, T326K

[4] = biological target: T1, recombinant cyno IL1RAP ECD; experiment: SPR, summary
[5] = biological target: T3, recombinant human IL1RAP ECD; experiment: SPR; human KD over cyno KD
[6] = biological target: T3, recombinant human IL1RAP ECD; experiment: SPR
[7] = biological target: T1, recombinant cyno IL1RAP ECD; experiment: SPR; remark: listed apart in the source
[8] = biological target: T3, recombinant human IL1RAP ECD; experiment: SPR; remark: listed apart in the source
[9] = biological target: T4, mouse IL1RAP ECD displayed on HEK-293F cells (pDisplay) (mouse, UniProt Q61730 21-367); experiment: Murine Binder, summary
T4 sequence: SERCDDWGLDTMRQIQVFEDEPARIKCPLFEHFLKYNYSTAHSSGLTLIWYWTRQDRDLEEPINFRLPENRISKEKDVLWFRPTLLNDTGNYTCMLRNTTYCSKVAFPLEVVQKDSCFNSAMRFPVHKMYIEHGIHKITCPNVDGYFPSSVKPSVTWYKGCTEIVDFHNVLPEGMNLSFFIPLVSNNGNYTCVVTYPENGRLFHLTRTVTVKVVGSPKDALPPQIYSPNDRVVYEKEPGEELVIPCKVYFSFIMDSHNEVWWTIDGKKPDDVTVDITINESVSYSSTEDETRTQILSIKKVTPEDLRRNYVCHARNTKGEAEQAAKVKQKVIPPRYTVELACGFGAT

[10] = biological target: T5, cyno IL1RAP ECD displayed on HEK-293F cells (pDisplay) (cynomolgus monkey, UniProt P59822 21-367 (rhesus entry)); experiment: HEK-293F cells (MSD)
T5 sequence: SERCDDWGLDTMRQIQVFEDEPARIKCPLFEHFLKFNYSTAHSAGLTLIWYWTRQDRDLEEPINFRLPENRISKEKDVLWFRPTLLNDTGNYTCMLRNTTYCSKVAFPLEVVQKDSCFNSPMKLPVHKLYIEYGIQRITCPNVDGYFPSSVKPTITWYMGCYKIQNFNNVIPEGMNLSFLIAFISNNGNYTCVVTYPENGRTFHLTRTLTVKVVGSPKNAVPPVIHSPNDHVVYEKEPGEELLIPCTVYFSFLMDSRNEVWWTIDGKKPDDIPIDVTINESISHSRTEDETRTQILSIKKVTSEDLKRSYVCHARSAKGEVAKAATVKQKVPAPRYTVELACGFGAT

[11] = biological target: T3, recombinant human IL1RAP ECD; experiment: SPR, summary; remark: listed apart in the source
[12] = biological target: T3, recombinant human IL1RAP ECD; experiment: SPR; KD against parent IAPB54
[13] = biological target: T1, recombinant cyno IL1RAP ECD; experiment: recombinant protein
[14] = biological target: T3, recombinant human IL1RAP ECD; experiment: SPR (ProteOn)
[15] = biological target: T6, human FcγRI (human, UniProt P12314 16-292, limits assumed); experiment: AlphaScreen competition, human FcγRI (n=1); displaced: biotinylated control mAb B21M hIgG1 AlaAla; pH 7.2
T6 construct: GST-tagged, on glutathione acceptor beads; also called FcγRT [sic]
Text: (§1) Measurements were made using an AlphaScreen™ assay (Amplified Luminescent Proximity Homogeneous Assay (ALPHA), PerkinElmer, Wellesley, Mass.), a bead-based luminescent proximity assay. Laser excitation of a donor bead excites oxygen, which if sufficiently close to the acceptor bead generates a cascade of chemiluminescent events, ultimately leading to fluorescence emission at 520-620 nm.

[16] = biological target: T7, human FcγRIIb (human, UniProt P31994 43-217, limits assumed); experiment: AlphaScreen competition, human FcγRIIb (n=1); displaced: biotinylated control mAb B21M hIgG1 WT; pH 7.2
T7 construct: GST-tagged
T7 sequence (looked up): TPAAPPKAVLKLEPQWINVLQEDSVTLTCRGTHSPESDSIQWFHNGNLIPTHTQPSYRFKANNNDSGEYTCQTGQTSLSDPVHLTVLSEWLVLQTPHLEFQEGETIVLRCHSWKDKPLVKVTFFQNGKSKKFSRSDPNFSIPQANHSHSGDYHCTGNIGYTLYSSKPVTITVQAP
Text: as §1

[17] = biological target: T8, human FcRn (human, UniProt P55899 24-297; P61769 21-119, limits assumed); experiment: AlphaScreen competition, human FcRn (n=1); displaced: biotinylated control mAb B21M WT IgG1 (m27); pH 6.0
T8 construct: GST-tagged
Text: as §1

Kd [1]: 16.9 nM
koff [1]: 0.00223 s⁻¹
kon [1]: 132000 M⁻¹ s⁻¹
Kd [3]: 7.36 nM
Kd [4]: 16.9 nM
Hu/Cyno KD Ratio [5]: 0.4
Kd [6]: 7.36 nM
Kd [7]: 16.9 nM
Kd [8]: 7.36 nM
koff [8]: 0.000827 s⁻¹
kon [8]: 112000 M⁻¹ s⁻¹
binding result [9]: binds
B1: IC3B2 (bispecific antibody, human IgG4 S228P, kappa, lambda, F234A L235A)
heavy 1: EVQLVESGGGLVQPGGSLKLSCAASGFTFNTYAMNWVRQASGKGLEWVGRIRSKYNAYATYYAASVKGRFTISRDDSKNTAYLQMNSLKTEDTAVYYCTRHGNFGNSYVSWFAYWGQGTLVTVSSASTKGPSVFPLAPCSRSTSESTAALGCLVKDYFPEPVTVSWNSGALTSGVHTFPAVLQSSGLYSLSSVVTVPSSSLGTKTYTCNVDHKPSNTKVDKRVESKYGPPCPPCPAPEAAGGPSVFLFPPKPKDTLMISRTPEVTCVVVDVSQEDPEVQFNWYVDGVEVHNAKTKPREEQFNSTYRVVSVLTVLHQDWLNGKEYKCKVSNKGLPSSIEKTISKAKGQPREPQVYTLPPSQEEMTKNQVSLTCLVKGFYPSDIAVEWESNGQPENNYKTTPPVLDSDGSFLLYSKLTVDKSRWQEGNVFSCSVMHEALHNHYTQKSLSLSLGK
light 1: QAVVTQEPSLTVSPGGTVTLTCRSSTGAVTTSNYANWVQQKPGQAPRGLIGGTNKRAPGTPARFSGSLLGGKAALTLSGAQPEDEAEYYCALWYSNLWVFGGGTKLTVLGQPKAAPSVTLFPPSSEELQANKATLVCLISDFYPGAVTVAWKADSSPVKAGVETTTPSKQSNNKYAASSYLSLTPEQWKSHRSYSCQVTHEGSTVEKTVAPTECS
heavy 2: not shown
light 2: not shown
notes: IgG4-PAA, Fab arm exchange; also called IAPB38 x CD3B220
EC50, T-cell mediated cytotoxicity [2]: 0.077 nM

Kd [1]: 5.27 nM
koff [1]: 0.00409 s⁻¹
kon [1]: 776000 M⁻¹ s⁻¹
Kd [3]: 4.56 nM
Kd [4]: 5.27 nM
Hu/Cyno KD Ratio [5]: 0.9
Kd [6]: 4.56 nM
Kd [7]: 5.27 nM
Kd [8]: 4.56 nM
koff [8]: 0.00354 s⁻¹
kon [8]: 776000 M⁻¹ s⁻¹
binding result [9]: binds
B2: IC3B11 (bispecific antibody, human IgG4 S228P, kappa, lambda, F234A L235A)
heavy 1: B1 heavy 1
light 1: B1 light 1
heavy 2: not shown
light 2: not shown
notes: IgG4-PAA, Fab arm exchange; also called IAPB9 x CD3B220
EC50, T-cell mediated cytotoxicity [2]: 1.32 nM

Kd [3]: 4.77 nM
Kd [6]: 4.77 nM
Kd [8]: 4.77 nM
binding result [9]: binds
B3: IC3B10 (bispecific antibody, human IgG4 S228P, kappa, lambda, F234A L235A)
heavy 1: B1 heavy 1
light 1: B1 light 1
heavy 2: not shown
light 2: not shown
notes: IgG4-PAA, Fab arm exchange
EC50, T-cell mediated cytotoxicity [2]: 0.124 nM

Kd [1]: 4.74 nM
koff [1]: 0.00583 s⁻¹
kon [1]: 1.23e+06 M⁻¹ s⁻¹
Kd [3]: 6.1 nM
Kd [4]: 4.74 nM
Hu/Cyno KD Ratio [5]: 1.3
Kd [6]: 6.1 nM
Kd [7]: 4.74 nM
Kd [8]: 6.1 nM
koff [8]: 0.00659 s⁻¹
kon [8]: 1.08e+06 M⁻¹ s⁻¹
binding result [9]: binds
B4: IC3B7 (bispecific antibody, human IgG4 S228P, kappa, lambda, F234A L235A)
heavy 1: B1 heavy 1
light 1: B1 light 1
heavy 2: not shown
light 2: not shown
notes: IgG4-PAA, Fab arm exchange; also called IAPB17 x CD3B220
EC50, T-cell mediated cytotoxicity [2]: 3.4 nM

binding result [10]: binds
Kd [11]: 0.58 nM
Fold Different from parent [12]: 1 fold
binding result [13]: binds
Kd [14]: 0.0775 nM
koff [14]: 7.48e-05 s⁻¹
kon [14]: 965000 M⁻¹ s⁻¹
B5: IAPB54 (antibody, human IgG4 S228P, lambda, F234A L235A, V domains shown)
VH: QVQLVQSGSELKKPGASVKVSCKASGYTFNTYAMNWVRQAPGQGLEWMGWINTNTGNPTYAQGFTGRFVFSLDTSVSTAYLQISSLKAEDTAVYYCARRYFDWLLGAFDIWGQGTMVTVSS
VL: QSALTQPRSVSGSPGHSVTISCTGTSSDVGDYNYVSWYQQRPGKVPKLLIYDVSKRPSGVPDRFSGSKSGNTASLTISGLQAEDEAIYFCCSYAGNYNVVFGGGTKLTVLG
notes: IgG4-PAA; also called 17B04 with human IgG4-PAA

Kd [11]: 0.38 nM
Fold Different from parent [12]: 4.7 fold
Kd [14]: 0.367 nM
koff [14]: 0.000234 s⁻¹
kon [14]: 638000 M⁻¹ s⁻¹
B6: IAPB64 (antibody, human IgG4 S228P, lambda, F234A L235A, V domains shown)
VH: B5 VH
VL: B5 VL with C91S
notes: IgG4-PAA; whole chains; also called IAPB54-LC-C91S

IC50 (read off the curve) [15]: ~90 nM
binding result [16]: binds
Kd [11]: 0.11 nM
Fold Different from parent [12]: 1.4 fold
Kd [14]: 0.108 nM
koff [14]: 9.76e-05 s⁻¹
kon [14]: 900000 M⁻¹ s⁻¹
IC50 (read off the curve) [17]: ~200 nM
B7: IAPB63 (antibody, human IgG4 S228P, lambda, F234A L235A)
heavy: not shown
light: QSALTQPRSVSGSPGHSVTISCTGTSSDVGDYNYVSWYQQRPGKVPKLLIYDVSKRPSGVPDRFSGSKSGNTASLTISGLQAEDEAIYFCASYAGNYNVVFGGGTKLTVLGQPKAAPSVTLFPPSSEELQANKATLVCLISDFYPGAVTVAWKADSSPVKAGVETTTPSKQSNNKYAASSYLSLTPEQWKSHRSYSCQVTHEGSTVEKTVAPTECS
notes: IgG4-PAA; whole chains; also called IAPB54-LC-C91A
